From US20140087995A1 (published 2014)
Numbered stars: 1 amine (or outer) side, 2 acyl side, 3 side chain; on linkers, the order of the positions; unused ones are H or OH. Bridge positions count the residues as written; N and C are the ends. Side chains are listed from the residue outwards. Ends that are not written are not given here. * marks the point of attachment. C20 diacid = O=C(O)CCCCCCCCCCCCCCCCCCC(=O)*; γGlu = O=C(O)[C@H](CCC(=O)[*:2])N[*:1]; AEEA = NCCOCCOCC(=O)O

Legend:
[1] = target: T1, rat calcitonin receptor (rat, UniProt P32214 25-516); experiment: ratio of binding IC50s: rat calcitonin receptor over rat amylin receptor (reference)
T1 construct: whole, on cells; also called rCTR; rat calcitonin (a) receptor
T1 sequence (looked up): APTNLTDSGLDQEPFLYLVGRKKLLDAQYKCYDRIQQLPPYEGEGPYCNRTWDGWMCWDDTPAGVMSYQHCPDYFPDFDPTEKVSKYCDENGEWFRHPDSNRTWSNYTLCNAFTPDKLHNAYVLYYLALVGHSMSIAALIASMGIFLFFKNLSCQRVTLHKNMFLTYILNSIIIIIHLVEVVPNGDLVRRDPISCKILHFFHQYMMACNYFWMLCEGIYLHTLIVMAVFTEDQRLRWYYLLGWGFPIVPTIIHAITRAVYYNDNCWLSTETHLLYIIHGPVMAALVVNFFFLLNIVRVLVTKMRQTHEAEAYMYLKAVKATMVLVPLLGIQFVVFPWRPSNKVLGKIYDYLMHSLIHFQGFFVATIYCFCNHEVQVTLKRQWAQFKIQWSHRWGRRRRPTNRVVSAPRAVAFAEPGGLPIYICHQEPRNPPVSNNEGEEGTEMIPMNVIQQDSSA

[2] = target: T2, human calcitonin receptor (human, UniProt P30988 25-474); experiment: ratio of binding IC50s: human calcitonin receptor over human amylin receptor (reference)
T2 construct: whole, on cells; also called hCTR; hCT
T2 sequence (looked up): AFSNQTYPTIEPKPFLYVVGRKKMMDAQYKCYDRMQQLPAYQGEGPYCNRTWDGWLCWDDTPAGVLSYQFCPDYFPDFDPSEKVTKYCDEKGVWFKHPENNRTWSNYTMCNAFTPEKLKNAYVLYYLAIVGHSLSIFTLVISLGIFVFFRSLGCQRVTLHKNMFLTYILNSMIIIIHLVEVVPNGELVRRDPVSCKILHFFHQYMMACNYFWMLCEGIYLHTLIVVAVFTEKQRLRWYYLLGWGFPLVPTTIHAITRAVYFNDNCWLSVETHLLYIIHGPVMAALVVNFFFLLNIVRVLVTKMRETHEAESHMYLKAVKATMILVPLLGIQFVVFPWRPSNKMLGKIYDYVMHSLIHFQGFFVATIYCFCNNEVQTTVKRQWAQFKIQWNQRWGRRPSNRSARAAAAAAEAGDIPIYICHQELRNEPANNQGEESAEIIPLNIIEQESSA
Experimental: The resulting pellet was resuspended, homogenized and centrifuged (20.000 rpm, 15 min) in a buffer containing 20 mM Na-HEPES and 0.1 mM EDTA (pH 7.4, buffer 2). The resulting pellet was resuspended in buffer 2 and protein concentration was measured (BCA protein Assay, Pierce). The homogenate was kept cold during the whole procedure. The membranes were kept at −80° C. until use. The assay was performed in a 384 well Optiplate (PerkinElmer) in a total volume of 40 ul. Membranes were mixed with SPA beads. Final concentration of membranes 35 ng/μL final and SPA beads was 0.05 mg/well. Test-compounds were dissolved in DMSO and further diluted in assay buffer (50 mM Hepes, pH 7.4, 1 mM CaCl2, 5 mM MgCl₂, 0.1% OA and 0.02% Tween20). […] The final mixture was incubated with shaking at 400 rpm for 120 min at 25° C. prior to centrifugation (1500 rpm, 10 min). Samples were analyzed on TopCounter™ (Packard). The IC₅₀ was calculated using (one site binding competition analysis) GraphPad Prism5 as a measure of receptor affinity.
Membranes were prepared in the following way; the cells were rinsed with PBS and incubated with Versene for approximately 5 min before harvesting. The cells were flushed with PBS and the cell-suspension was centrifuged for 5 min at 1000 rpm. Cells were homogenized (Ultrathurrax) in a buffer containing 20 mM Na-HEPES and 10 mM EDTA (pH 7.4) and centrifuged at 20.000 rpm for 15 min. The resulting pellet was resuspended, homogenized and centrifuged (20.000 rpm, 15 min) in a buffer containing 20 mM Na-HEPES and 0.1 mM EDTA (pH 7.4, buffer 2). The resulting pellet was resuspended in buffer 2 and protein concentration was measured (BCA protein Assay, Pierce). The homogenate was kept cold during the whole procedure. The membranes were kept at −80° C. until use. Assay was performed in a 384 well Optiplate (PerkinElmer) in a total volume of 40 ul. Membranes were mixed with SPA beads.

[3] = target: T1, rat calcitonin receptor; experiment: SPA competition with 125I-calcitonin, membranes of BHK cells with rat calcitonin receptor (Assay VIII)
[4] = target: T3, rat amylin receptor (rat calcitonin receptor + rat RAMP 3) (rat, UniProt P32214 25-516; Q9JJ73 23-147); experiment: SPA competition with 125I-rat amylin, membranes of BHK cells with rat calcitonin receptor + rat RAMP3 (Assay VI)
T3 construct: whole, on cells; also called rAmylin-R; rat amylin 3(a) receptor
T3 sequence (looked up) 1: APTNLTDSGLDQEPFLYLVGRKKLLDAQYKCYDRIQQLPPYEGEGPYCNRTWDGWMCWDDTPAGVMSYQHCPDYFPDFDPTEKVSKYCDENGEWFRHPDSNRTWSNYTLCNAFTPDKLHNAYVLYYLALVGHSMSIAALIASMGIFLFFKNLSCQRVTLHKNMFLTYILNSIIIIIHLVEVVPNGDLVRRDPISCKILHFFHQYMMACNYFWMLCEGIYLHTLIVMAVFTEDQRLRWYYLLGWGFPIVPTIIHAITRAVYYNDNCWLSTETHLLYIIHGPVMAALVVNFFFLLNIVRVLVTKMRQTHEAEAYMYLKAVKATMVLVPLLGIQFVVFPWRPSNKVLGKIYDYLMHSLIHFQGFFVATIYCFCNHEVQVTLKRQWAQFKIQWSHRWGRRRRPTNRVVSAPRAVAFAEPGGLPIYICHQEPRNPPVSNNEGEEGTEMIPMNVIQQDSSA
T3 sequence (looked up) 2: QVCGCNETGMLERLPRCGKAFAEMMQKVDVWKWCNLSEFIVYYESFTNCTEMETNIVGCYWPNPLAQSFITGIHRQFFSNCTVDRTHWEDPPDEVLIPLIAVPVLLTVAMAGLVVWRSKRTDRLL

B1: N^ε1-[2-[2-[2-[[(4S)-4-carboxy-4-(19-carboxynonadecanoylamino)butanoyl]amino]ethoxy]ethoxy]acetyl]-[Ala14,Arg17,Pro21,Pro27,Pro31]-h-amylin (peptide)
peptide: K([AEEA-γGlu-C20 diacid])CNTATCATQRLAAFLRHSSPNFGAIPSSTPVGSNTY-NH2
modifications: disulfide 2-7; N-terminus assumed
SMILES: CC[C@H](C)[C@H](NC(=O)[C@H](C)NC(=O)CNC(=O)[C@H](Cc1ccccc1)NC(=O)[C@H](CC(N)=O)NC(=O)[C@@H]1CCCN1C(=O)[C@H](CO)NC(=O)[C@H](CO)NC(=O)[C@H](Cc1c[nH]cn1)NC(=O)[C@H](CCCNC(=N)N)NC(=O)[C@H](CC(C)C)NC(=O)[C@H](Cc1ccccc1)NC(=O)[C@H](C)NC(=O)[C@H](C)NC(=O)[C@H](CC(C)C)NC(=O)[C@H](CCCNC(=N)N)NC(=O)[C@H](CCC(N)=O)NC(=O)[C@@H](NC(=O)[C@H](C)NC(=O)[C@@H]1CSSC[C@H](NC(=O)[C@@H](N)CCCCNC(=O)COCCOCCNC(=O)CC[C@H](NC(=O)CCCCCCCCCCCCCCCCCCC(=O)O)C(=O)O)C(=O)N[C@@H](CC(N)=O)C(=O)N[C@@H]([C@@H](C)O)C(=O)N[C@@H](C)C(=O)N[C@@H]([C@@H](C)O)C(=O)N1)[C@@H](C)O)C(=O)N1CCC[C@H]1C(=O)N[C@@H](CO)C(=O)N[C@@H](CO)C(=O)N[C@H](C(=O)N1CCC[C@H]1C(=O)N[C@H](C(=O)NCC(=O)N[C@@H](CO)C(=O)N[C@@H](CC(N)=O)C(=O)N[C@H](C(=O)N[C@@H](Cc1ccc(O)cc1)C(N)=O)[C@@H](C)O)C(C)C)[C@@H](C)O
notes: synthetic analogue of human amylin; also called compound 72
In the case of B1, the “Ratio rCT/rAmylin binding” value [1] is reported as 259, the “Ratio hCT/hAmylin binding” value [2] is reported as 247 and the IC50 [3] is reported as 221 nM. The IC50 [4] was 0.851 nM.

B2: N^ε1-[2-[2-[2-[[(4S)-4-carboxy-4-(19-carboxynonadecanoylamino)butanoyl]amino]ethoxy]ethoxy]acetyl]-[Arg14,Arg17,Pro21,Pro27,Pro31]-h-amylin (peptide)
peptide: K([AEEA-γGlu-C20 diacid])CNTATCATQRLARFLRHSSPNFGAIPSSTPVGSNTY-NH2
modifications: disulfide 2-7; N-terminus assumed
SMILES: CC[C@H](C)[C@H](NC(=O)[C@H](C)NC(=O)CNC(=O)[C@H](Cc1ccccc1)NC(=O)[C@H](CC(N)=O)NC(=O)[C@@H]1CCCN1C(=O)[C@H](CO)NC(=O)[C@H](CO)NC(=O)[C@H](Cc1c[nH]cn1)NC(=O)[C@H](CCCNC(=N)N)NC(=O)[C@H](CC(C)C)NC(=O)[C@H](Cc1ccccc1)NC(=O)[C@H](CCCNC(=N)N)NC(=O)[C@H](C)NC(=O)[C@H](CC(C)C)NC(=O)[C@H](CCCNC(=N)N)NC(=O)[C@H](CCC(N)=O)NC(=O)[C@@H](NC(=O)[C@H](C)NC(=O)[C@@H]1CSSC[C@H](NC(=O)[C@@H](N)CCCCNC(=O)COCCOCCNC(=O)CC[C@H](NC(=O)CCCCCCCCCCCCCCCCCCC(=O)O)C(=O)O)C(=O)N[C@@H](CC(N)=O)C(=O)N[C@@H]([C@@H](C)O)C(=O)N[C@@H](C)C(=O)N[C@@H]([C@@H](C)O)C(=O)N1)[C@@H](C)O)C(=O)N1CCC[C@H]1C(=O)N[C@@H](CO)C(=O)N[C@@H](CO)C(=O)N[C@H](C(=O)N1CCC[C@H]1C(=O)N[C@H](C(=O)NCC(=O)N[C@@H](CO)C(=O)N[C@@H](CC(N)=O)C(=O)N[C@H](C(=O)N[C@@H](Cc1ccc(O)cc1)C(N)=O)[C@@H](C)O)C(C)C)[C@@H](C)O
notes: synthetic analogue of human amylin; also called compound 64
In the case of B2, the “Ratio rCT/rAmylin binding” value [1] is reported as 64.7, the “Ratio hCT/hAmylin binding” value [2] is reported as 126 and the IC50 [3] is reported as 128 nM. It also gave an IC50 [4] of 1.97 nM.
